Reference: publication PMC4403447, “Hsp90 regulates the dynamics of its cochaperone Sti1 and the transfer of Hsp70 between modules” (Nature Communications, 2015)
Changes are numbered by the printed parent chain.

B1: Sti1 (stress-inducible protein 1), wild type (natural protein, S. cerevisiae, UniProt P15705 1-589, looked up)
chain: MSLTADEYKQQGNAAFTAKDYDKAIELFTKAIEVSETPNHVLYSNRSACYTSLKKFSDALNDANECVKINPSWSKGYNRLGAAHLGLGDLDEAESNYKKALELDASNKAAKEGLDQVHRTQQARQAQPDLGLTQLFADPNLIENLKKNPKTSEMMKDPQLVAKLIGYKQNPQAIGQDLFTDPRLMTIMATLMGVDLNMDDINQSNSMPKEPETSKSTEQKKDAEPQSDSTTSKENSSKAPQKEESKESEPMEVDEDDSKIEADKEKAEGNKFYKARQFDEAIEHYNKAWELHKDITYLNNRAAAEYEKGEYETAISTLNDAVEQGREMRADYKVISKSFARIGNAYHKLGDLKKTIEYYQKSLTEHRTADILTKLRNAEKELKKAEAEAYVNPEKAEEARLEGKEYFTKSDWPNAVKAYTEMIKRAPEDARGYSNRAAALAKLMSFPEAIADCNKAIEKDPNFVRAYIRKATAQIAVKEYASALETLDAARTKDAEVNNGSSAREIDQLYYKASQQRFQPGTSNETPEETYQRAMKDPEVAAIMQDPVMQSILQQAQQNPAALQEHMKNPEVFKKIQTLIAAGIIRTGR
notes: Sti1, yeast cochaperone of Hsp70 and Hsp90, full length; also called wild-type Sti1; full-length Sti1; source: E. coli BL21 (DE3) Codon Plus, purified (Hi-Trap, Superdex 200); not shown: 6xHis-SUMO or thrombin-cleavable 6xHis, N-terminal, cleaved
B2: Sti1 R469A (natural protein, S. cerevisiae, UniProt P15705 1-589, looked up)
chain: B1 chain with R469A
notes: source: E. coli BL21 (DE3) Codon Plus, purified (Hi-Trap, Superdex 200); not shown: 6xHis-SUMO or thrombin-cleavable 6xHis, N-terminal, cleaved
B3: Sti1 N39A (natural protein, S. cerevisiae, UniProt P15705 1-589, looked up)
chain: B1 chain with N39A
notes: also called TPR1-defective construct; source: E. coli BL21 (DE3) Codon Plus, purified (Hi-Trap, Superdex 200); not shown: 6xHis-SUMO or thrombin-cleavable 6xHis, N-terminal, cleaved
B4: Sti1 TPR2A–TPR2B (domain or fragment, S. cerevisiae)
chain: ADKEKAEGNKFYKARQFDEAIEHYNKAWELHKDITYLNNRAAAEYEKGEYETAISTLNDAVEQGREMRADYKVISKSFARIGNAYHKLGDLKKTIEYYQKSLTEHRTADILTKLRNAEKELKKAEAEAYVNPEKAEEARLEGKEYFTKSDWPNAVKAYTEMIKRAPEDARGYSNRAAALAKLMSFPEAIADCNKAIEKDPNFVRAYIRKATAQIAVKEYASALETLDAARTKDAEVNNGSSAREIDQLYYKASQ
notes: TPR2A-TPR2B segment of Sti1; also called TPR2A–TPR2B fragment; TPR1-lacking construct; source: E. coli BL21 (DE3) Codon Plus, purified (Hi-Trap, Superdex 200); not shown: 6xHis-SUMO or thrombin-cleavable 6xHis, N-terminal, cleaved

Legend:
Details in all cases: both partners purified
[1] = molecular target: T1, yHsp70 (Ssa1) (yeast, UniProt P10591 1-642); experiment: SAXS; mixtures of a Sti1 variant and Hsp70 at 1:1 and 1:2; solute 1 to 10 mg/ml; in-house SAXSess mc2; masses from I(0)
T1 construct: Yeast Hsp70 Ssa1, full length; The strain carries a 6xHis-SSA1 gene; The methods speak of cleavage of the His6-SUMO tag or His-tag in general, and it is not clear whether this holds for Ssa1; source: Pichia pastoris KM71H-Ssa1, purified (Hi-Trap, Superdex 200)

[2] = molecular target: T1, yHsp70 (Ssa1); experiment: SPR; Hsp70 amine-coupled to a CM5 chip, Sti1 variants as analyte; 40 mM Hepes pH 7.5, 20 mM KCl, 5 mM MgCl2, 0.005% Tween; 10 μl/min; 20 °C; Langmuir isotherm; affinities shown normalized to wild-type Sti1
[3] = molecular target: T2, fluorescein-labelled yHsp70 (Ssa1) (yeast, UniProt P10591 1-642, 5-(and -6)-carboxyfluorescein covalently coupled (amine-reactive dye); sites not stated); experiment: AUC; ternary complexes, fluorescence detection: 0.5 μM fluorescein-labelled yHsp70 and 3 μM yHsp90 with 0.5 to 8 μM Sti1 variant; 10 mM potassium phosphate pH 7.5; 20 °C; 42,000 r.p.m.; dc/dt plots
T2 construct: Yeast Hsp70 Ssa1, full length, labelled with carboxyfluorescein; Same protein as m11, with the fluorescent label used for AUC; also called fluorescently labelled yHsp70; fluorescently labelled Ssa1; source: Pichia pastoris KM71H-Ssa1, purified (Hi-Trap, Superdex 200), then labelled

[4] = molecular target: T3, yHsp90 (Hsp82) (yeast, UniProt P02829 1-709); experiment: as above
T3 construct: Yeast Hsp90 Hsp82; source: E. coli BL21 (DE3) Codon Plus, purified (Hi-Trap, Superdex 200); not shown: 6xHis-SUMO or thrombin-cleavable 6xHis, N-terminal, cleaved

T1 sequence (P10591 whole entry): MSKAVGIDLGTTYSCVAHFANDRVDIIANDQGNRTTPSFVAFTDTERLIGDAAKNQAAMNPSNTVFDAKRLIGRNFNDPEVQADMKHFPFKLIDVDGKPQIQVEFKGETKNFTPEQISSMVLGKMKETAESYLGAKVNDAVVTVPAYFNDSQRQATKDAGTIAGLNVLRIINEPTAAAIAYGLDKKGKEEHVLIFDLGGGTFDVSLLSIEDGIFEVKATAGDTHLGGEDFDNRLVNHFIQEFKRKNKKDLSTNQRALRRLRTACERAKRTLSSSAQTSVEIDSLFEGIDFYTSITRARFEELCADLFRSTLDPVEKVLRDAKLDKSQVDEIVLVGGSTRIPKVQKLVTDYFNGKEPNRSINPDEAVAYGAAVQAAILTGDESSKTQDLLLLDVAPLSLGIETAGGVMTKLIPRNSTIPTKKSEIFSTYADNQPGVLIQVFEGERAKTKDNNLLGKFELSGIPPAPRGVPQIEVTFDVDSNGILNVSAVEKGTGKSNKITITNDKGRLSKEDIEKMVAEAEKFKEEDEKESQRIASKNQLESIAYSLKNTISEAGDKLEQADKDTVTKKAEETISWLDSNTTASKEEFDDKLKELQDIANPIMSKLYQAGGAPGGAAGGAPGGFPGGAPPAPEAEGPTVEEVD
T2 sequence (P10591 whole entry): as above

Row | Binder | stoichiometry N [1] | binding result [2] | binding result [3] | binding result [4]
1 | B1 | 1 | – | – | –
2 | B2 | – | binds | – | –
3 | B3 | – | binds | binds | binds
4 | B4 | – | binds | binds | binds
